Test results as given in publication PMC4260879.

Assays:
UG37 gp140 (HIV-1) [1] = assay: ELISA; gp140 coated at 2 ug/ml (2 hr, 37 C); CD4-IgG2 titrated, 2 hr at RT; detected with anti-human-IgG-HRP; one-site binding fit, EC50 at 50% of maximum binding
UG37 gp140 (HIV-1) [2] = assay: SEC; Superdex200 26/60; trimer peak after Talon, re-run after GNA-lectin capture

| Substance | EC50 (UG37 gp140 (HIV-1) [1]) [nM] | stoichiometry N (UG37 gp140 (HIV-1) [2]) |
| --- | --- | --- |
| CD4-IgG2 (from UniProt P01730 26-458) (Fc fusion) | 0.18 | – |
| UG37 gp140 (domain or fragment) | – | 3 |
